Target: recombinant human tau(297–391) (human) (UniProt P10636)
Assay: co-sedimentation; pelletable tau: whole assembly reaction centrifuged at 400,000g, 20 °C, 15 min, pellet and supernatant quantified by SDS-PAGE; 720 min (Fig. 2b, PHF reaction)

percent of tau pelletable: 80 to 90%
Substance: recombinant human tau(297–391) (from UniProt P10636-8 297-391) (domain or fragment)

— publication PMC10764278
